Laboratory results from patent publication US20050255554A1.

Molecular target: α-amylase
Assay: cell-based or functional assay

thioredoxin/90-mer ELP/tendamistat fusion protein (from UniProt P01092 31-104)
α-amylase inhibition activity (colorimetric α-amylase inhibition assay): 2 fold
